Reference: US20050261170A1 (published 2005)
Primed or numbered codes have the meaning given here. NTA′ = nitrilotriacetic acid residue (Asp with its nitrogen carboxymethylated)

Target: T1, onconase bearing a six His tag (Rana pipiens, UniProt P22069 1-104)
T1 construct: also called His-tagged onconase
T1 sequence: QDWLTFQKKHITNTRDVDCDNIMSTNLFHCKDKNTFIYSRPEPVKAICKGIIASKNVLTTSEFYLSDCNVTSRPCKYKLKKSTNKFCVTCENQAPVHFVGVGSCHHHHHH
Test: SPR (Biacore C1 chip): IMP 267 immobilised by a disulfide and loaded with NiCl2, flow cell without nickel as control, His-tagged onconase at 0-50 nM as analyte
Method: IMP 267 was bound to a Biacore® C1 sensor chip first by dissolving 0.0040 g of IMP 267 in 690 μL of 0.01 M, pH 4.3 formate buffer. The chip was activated for coupling of the peptide via a disulfide linkage using pyridyldithioelthylamine (“PDEA”) as described by Biacore. The Biacore® C1 chip was activated with a 10 μL aliquot of the recommended 1-ethyl-3-(3-dimethylaminoprolyl) carbodiimide (“EDC”)/N-hydroxysuccinimide (“NHS”) mixture at 5 μL/min in flow cells 1 & 2. The recommended PDEA solution, 35 μL (0.0047 g PDEA in 0.1 M, pH 8.5 Borate buffer) was added to the chip at flow cells 1 & 2. The peptide, 35 μL was added to flow cells 1 & 2 and the chip was quenched with an aliquot of cysteine (made from 0.0026 g cys, 0.0268 g NaCl, and 433 μL 0.1 M, pH 4.3 formate buffer) into cells 1 & 2. The chip was activated by adding nickel to only one flow cell using the other flow cell, without nickel, as the control. The activation was done at 40 μL/min using 100 μL of a 500 μM NiCl₂ solution in NTA buffer. A kinetics experiment was performed using the following concentrations of onconase bearing a six His tag (50 nM, 25 nM, 10 nM, 5 nM, 1 nM and 0 nM). […] The affinity of His-tagged onconase is accessed similarly.

Kd: 1.15 nM
B1: IMP 267 (peptide)
peptide: Ac-CK(NTA′)K(NTA′)K(NTA′)-NH2
modifications: also: Cys thiol coupled to Biacore C1 chip by disulfide (PDEA), loaded with Ni2+
notes: Synthetic tri-NTA peptide; also called peptide that includes nitrilotriacetic acid residues
